Reference: US6107069A, “Recombinant kynurenine-3-hydroxylase enzyme and process for its preparation” (priority 1996, dated 2000)

Substrate: Nc1ccccc1C(=O)C[C@H](N)C(=O)O
Experiment: cells, lysate or membranes named
Conditions: other: L-kynurenine 1 to 4,000 μM, OD600 = 0.6, IPTG 1 mM, 2 h at 37° C.

B1: human recombinant kyn-3-OHase (Homo sapiens) (protein)
chain: MDSSVIQRKKVAVIGGGLVGSLQACFLAKRNFQIDVYEAREDTRVATFTRGRSINLALSHRGRQALKAVGLEDQIVSQGIPMRARMIHSLSGKKSAIPYGTKSQYILSVSRENLNKDLLTAAEKYPNVKMHFNHRLLKCNPEEGMITVLGSDKVPKDVTCDLIVGCDGAYSTVRSHLMKKPRFDYSQQYIPHGYMELTIPPKNGDYAMEPNYLHIWPRNTFMMIALPNMNKSFTCTLFMPFEEFEKLLTSNDVVDFFQKYFPDAIPLIGEKLLVQDFFLLPAQPMISVKCSSFHFKSHCVLLGDAAHAIVPFFGQGMNAGFEDCLVFDELMDKFSNDLSLCLPVFSRLRIPDDHAISDLSMYNYIEMRAHVNSSWFIFQKNMERFLHAIMPSTFIPLYTMVTFSRIRYHEAVQRWHWQKKVINKGLFFLGSLIAISSTYLLIHYMSPRSFLCLRRPWNWIAHFRNTTCFPAKAVDSLEQISNLISR
For B1, the Km was 57 ± 2 µM and the Vmax was 10.5±0.11 nmol/hour.mg of protein.
